Results as given in patent publication US20220195028A1 (Janssen / Centocor, published 2022).

What was measured:
recombinant human TNFα [1] = biological target: T1, recombinant human TNFα (human, UniProt P01375 77-233); test: cell-based or functional assay
recombinant human TNFα [2] = biological target: T1, recombinant human TNFα; test: 125I-TNFα binding to plate-coated p55-sf2 in presence of varying amounts of mAb in hybridoma supernatant
Experimental: (§1) 50:l of p55-sf2 at 0.5:g/ml in PBS was added to Optiplates to coat the wells during a one-hour incubation at 37° C. Serial dilutions of the eight TNV cell supernatants were prepared in 96-well round-bottom plates using PBS/0.1% BSA as diluent. […] The mixture was preincubated for one hour at RT. The coated Optiplates were washed to remove unbound p55-sf2 and 50:l of the ¹²⁵I-TNFα/cell supernatant mixture was transferred to the Optiplates. After 2 hrs at RT, Optiplates were washed three times with PBS-Tween. 100:l of Microscint-20 was added and the cpm bound determined using the TopCount gamma counter.
A simple binding assay was done to determine whether the eight TNV mAbs contained in hybridoma cell supernatant were capable of blocking TNFα binding to receptor. The concentrations of the TNV mAbs in their respective cell supernatants were first determined by standard ELISA analysis for human IgG.

recombinant human TNFα [3] = biological target: T1, recombinant human TNFα; test: competition radioligand assay: mAb in hybridoma supernatant preincubated with 5 ng/ml 125I-TNFα, then binding of TNFα to plate-coated p55-sf2 counted as cpm bound
Experimental: Varying amounts of hybridoma cell supernatants containing known amounts of TNV mAb were preincubated with a fixed concentration (5 ng/ml) of ¹²⁵I-labeled TNFα. […] The amount of TNFα that bound to the p55 receptor in the presence of the mAbs was determined after washing away the unbound material and counting using a gamma counter. Although eight TNV mAb samples were tested in these experiments, for simplicity three of the mAbs that were shown by DNA sequence analyses to be identical to one of the other TNV mAbs (see Section 5.2.2) are not shown here. Each sample was tested in duplicate. The results shown are representative of two independent experiments.
as §1

| neutralizing TNFα bioactivity (potency relative to TNV14) (recombinant human TNFα [1]) [fold] | fold better at blocking TNF binding to p55-sf2 (against TNV118 and TNV14) (recombinant human TNFα [2]) [fold] | IC50 (read off the curve) (recombinant human TNFα [3]) [ng/mL] | Binder |
| --- | --- | --- | --- |
| 4 | ~4 | ~4 | TNV148 (antibody, human IgG1, V domains shown, also called GenTNV148.26.12; C420A) VH: QVQLVESGGGVVQPGRSLRLSCAASGFIFSSYAMHWVRQAPGNGLEWVAFMSYDGSNKKYADSVKGRFTISRDNPKNTLYLQMNSLRAEDTAVYYCARDRGIAAGGNYYYYGMDVWGQGTTVTVSS VL: EIVLTQSPATLSLSPGERATLSCRASQSVYSYLAWYQQKPGQAPRLLIYDASNRATGIPARFSGSGSGTDFTLTISSLEPEDFAVYYCQQRSNWPPFTFGPGTKVDIKR |
|  | ~4 |  | TNV86 (antibody, human IgG1, V domains shown, also called GenTNV86.14.34; C417A) VH: QVQLVESGGGVVQPGRSLRLSCAASGFIFSSYAMHWVRQAPGNGLEWVAFMSYDGSNKKYADSVKGRFTISRDNPKNTLYLQMNSLRAEDTAVYYCARDRGIAAGGNYYYYGMDVWGQGTTVTVSS VL: EIVLTQSPATLSLSPGERATLSCRASQSVYSYLAWYQQKPGQAPRLLIYDASNRATGIPARFSGSGSGTDFTLTISSLEPEDFAVYYCQQRSNWPPFTFGPGTKVDIKR |
